In the supplement of paper PMC12042874:
± gives the uncertainty stated by the source.

Assay: amyloid nucleation score (Sup35N fusion, yeast selection) (log enrichment); library NNK2; higher = more nucleation; inactive = no reads after selection
Procedure, shortened: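 For the nucleation score, DiMSum gave the log enrichment of output over input reads, centred on the mode score of non-aggregating sequences. Psi-negative yeast expressing Sup35N fused to peptides of 20 random codons were induced with 100 μM copper sulfate for 24 hours and grown 7 days at 30°C on medium lacking adenine and uracil. Input and output plasmid inserts were Illumina-sequenced, and sequences with under 100 input reads were excluded.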

| Substance | amyloid nucleation score |
| --- | --- |
| TGTPYRF | 1.11 ± 0.23 |
| THMYCIMVYRRYSGSVGLGY | 0.127 ± 0.77 |
| THTSLLSLVP | -0.291 ± 0.76 |
| THVECALMTYPDVYSDEGFI | -0.001 ± 0.32 |
| TIENLNLFWF | 5.73 ± 0.06 |
| TIIRDFSWLHLGFPRACIIT | -0.976 ± 0.64 |
| TILWEVVGAL | 0.091 ± 0.17 |
| TIQRRQFVNPDSVVMLRINY | -0.704 ± 0.76 |
| TISLPYHHKVSRAMNSRF | -0.028 ± 0.62 |
| TISLRGDMDSSCKGIEGSSL | -0.316 ± 1.1 |
| TITMFHYLRSLSGNSDYGLG | 2.31 ± 0.1 |
| TIWFFFL | 7.075 ± 0.043 |
| TKCVFIVCRLYVFDMVGLYV | -0.573 ± 0.78 |
| TKEFGECFIQMIMYNGRDIL | 1.88 ± 0.1 |
| TLAEFGQQPGRGACMYAVNN | inactive |
| TLCRAGLNGPWLNVLRFVPR | 0.615 ± 0.36 |
| TLDTSYYFLTRVFNHLNISE | -0.776 ± 0.55 |
| TLELLIMD | 0.385 ± 0.33 |
| TLFSMVNSTLNGWWIMT | 6.84 ± 0.061 |
| TLGPL | inactive |
| TLHVVQFWKSCI | -0.343 ± 0.45 |
| TLKVRNLNVQEFVVSPNQRH | 4.99 ± 0.088 |
| TLLIMCGSISHSFPSECHWL | 0.716 ± 0.15 |
| TLLTYMVLKCFQFVSEYLWK | 3.7 ± 0.07 |
| TLMWESYMWS | -0.897 ± 0.63 |

| Substance | amyloid nucleation score |
| --- | --- |
| TLNLDFFELSMPGDFSDLVS | inactive |
| TLNMNVSFPIRRAHIYEMLI | 0.83 ± 0.48 |
| TLRHSKFTSIPVIETGLCGV | -1.44 ± 1.1 |
| TLRIWYCWHDSAYTSSDHII | 1.45 ± 0.2 |
| TLSSKLFCVKASVRSMGPVV | 7.723 ± 0.047 |
| TLSVGVQL | -0.624 ± 0.63 |
| TLTPNNSTCTGVCFCLSYNQ | 9.475 ± 0.059 |
| TLVLTEFDKGIDIVL | -0.565 ± 0.26 |
| TLYKFM | -0.476 ± 0.74 |
| TMCDSIVIEYGPCIFDSSSS | 4.74 ± 0.056 |
| TMLFRRFYSFMSTL | -0.053 ± 1 |
| TMLSLSDISFQLKKILL | 2.56 ± 0.15 |
| TMQSWFSAFYLVVDMPTRYC | -0.232 ± 0.29 |
| TMRVHRYRTN | -0.493 ± 0.63 |
| TMVMTVQPPLHLFCLDLMHD | 2.24 ± 0.12 |
| TMWGNI | -1.59 ± 0.48 |
| TMYIWRL | 6.58 ± 0.039 |
| TMYLFGYEV | 1.31 ± 0.35 |
| TMYVREYSFYFLYNVDITRG | 0.649 ± 0.32 |
| TNCSPVVPSCD | 0.224 ± 0.57 |
| TNDMVDHVRRSNHDI | 0.871 ± 0.31 |
| TNGLLNYCSRYTDLDNGSYR | inactive |
| TNIQN | -0.69 ± 0.61 |
| TNKYFCTFGAHGARDLQMHV | inactive |
| TNKYLVGSILYLFKHGWLGV | 0.067 ± 0.55 |

| Substance | amyloid nucleation score |
| --- | --- |
| TPFAHSGSWCNSERLVPRLV | 0.364 ± 0.33 |
| TPGLCSNL | -1.44 ± 1 |
| TPIRVFGNYNSFHFCTMSS | 8.302 ± 0.053 |
| TPSDGCQHMASVVISI | 0.683 ± 0.8 |
| TQCSLRLKFTCYAMRSFGQY | 5.02 ± 0.096 |
| TRGNM | 0.63 ± 0.39 |
| TRINMGIFCLQDKVPMLRDE | 3 ± 0.082 |
| TRIVS | -0.415 ± 0.25 |
| TRMNSVYKVEIRRLVKMVSW | 0.242 ± 0.21 |
| TRNWRGYVCYSEVIIVVKQE | -0.839 ± 0.78 |
| TRRGF | -0.357 ± 0.3 |
| TRSPCGRCDSEFLNASLAGL | 0.71 ± 0.36 |
| TRVGGWKTSG | 0.945 ± 0.32 |
| TRYYMYIRDVH | -0.533 ± 0.44 |
| TSAPSKSLLLGVIIIGAFPD | inactive |
| TSERRLNYTCCNYWYMG | 9.053 ± 0.04 |
| TSFGWSGSCKLMYSMSTSGT | 0.636 ± 0.3 |
| TSGFSIIRVIVNYIYALETR | 3.86 ± 0.12 |
| TSGLAGGDWNWAS | 0.314 ± 0.64 |
| TSIYYISNIA | 0.568 ± 0.24 |
| TSKWQRNLFGDGSLKEFTGE | -0.712 ± 1.1 |
| TSNCS | 0.579 ± 0.3 |
| TSNRRTYGWHDQTCGQGVWY | 1.1 ± 0.29 |
| TSNRTTNSLLMCDKLRNTSV | -0.345 ± 0.25 |
| TSPRRACWSIQSDDWFGFEW | 1.33 ± 0.38 |

| Substance | amyloid nucleation score |
| --- | --- |
| TSQQRAYITP | -0.703 ± 1 |
| TSSCFDCSFNMEFLMVLVSF | 1.52 ± 0.2 |
| TSSLDEEALS | -0.648 ± 0.55 |
| TSSLYISMMVLL | 4.07 ± 0.074 |
| TSSSYTSTFDRGLMNLRTCL | -0.039 ± 0.25 |
| TSSWIMIRS | 1.52 ± 0.19 |
| TSWCSIHTVMLYLFLIVCQY | inactive |
| TTALGRFMFDLCNDDWYSLV | inactive |
| TTCDNEREGTLKYVNVCCNL | 5.42 ± 0.045 |
| TTENNCLVREKVVYGWMWSS | 0.149 ± 0.25 |
| TTFMRVVLFAPVLYMYGKNR | 5.492 ± 0.043 |
| TTGNQLKKCVDKCGGRSGGE | 0.938 ± 0.45 |
| TTHVNLIKRRGYFRRCVFQL | 0.087 ± 0.79 |
| TTLYGNSRFTVCMTKGW | -0.271 ± 0.74 |
| TTLYMACYSSCDEGN | -0.193 ± 0.27 |
| TTRSRVWRKLGSSCTI | 0.242 ± 0.31 |
| TTSGNTIHIYVIQLSIQKFS | 5.39 ± 0.06 |
| TVASTYVLVTCHRAFDQS | 3.46 ± 0.079 |
| TVFWGTMVGPQRGVVGLESF | 0.593 ± 0.74 |
| TVGEPIIRLYRFVRFFCLAN | -1.79 ± 0.78 |
| TVGIAKKNMVR | 0.503 ± 0.43 |
| TVGRWH | -0.939 ± 0.76 |
| TVIIDDTCICFYYIEYMWCE | inactive |
| TVLLWD | inactive |
| TVLPAVCYGVLNSRFRVTME | inactive |

| Substance | amyloid nucleation score |
| --- | --- |
| TVMCLNLLR | 6.454 ± 0.026 |
| TVMLCSMISYKAVLVTYVGG | 1.87 ± 0.13 |
| TVMYSGVG | 0.501 ± 0.46 |
| TVRANLKTRCMSRTTNQEHT | 1.85 ± 0.15 |
| TVRFVRFYSPLWLSVTYRLT | 0.412 ± 0.55 |
| TVRVST | -0.004 ± 0.36 |
| TVSRIMLGNGKYFKHVL | 2.3 ± 0.064 |
| TVWCWVDRTMGLEWTYLTA | 1.1 ± 0.23 |
| TVYPCMYGGLGHRERHLSMS | 5.06 ± 0.063 |
| TVYSHEKGVQLWFLLIVALL | 0.27 ± 0.48 |
| TWFAHQMWCFSILQFITLKS | 0.867 ± 0.32 |
| TWNISILHCI | 4.84 ± 0.084 |
| TWQTLYASSVFFANPVEHPL | 0.068 ± 0.29 |
| TWRFYTFLFEVFRRSEILKR | -0.97 ± 1.1 |
| TWRLKVVGQRQTFSKFTGLG | -0.133 ± 0.35 |
| TWRYHFADVGSILDLVG | -0.277 ± 0.4 |
| TWSIYAHH | 0.952 ± 0.58 |
| TYGGEV | 0.251 ± 0.31 |
| TYIQPVARRKHLA | 0.101 ± 0.39 |
| TYKCLTRATKGRNHVFRFCV | 1.08 ± 0.15 |
| TYKTGDACVLVLPPHMADPR | -0.446 ± 1.1 |
| TYLRSPLLLNAVSVNT | 0.082 ± 0.65 |
| TYMRGSLSEIGGTLL | 1.06 ± 0.19 |
| TYPRDYVVRSEI | 0.74 ± 0.43 |
| TYRSEYCICLLLSAFFQMKG | -1.08 ± 1.1 |

| Substance | amyloid nucleation score |
| --- | --- |
| TYVDTVFSGSGCYLLYKGWI | 0.851 ± 0.57 |
| TYVLWSFTKYRPP | 1.02 ± 0.66 |
| VAFFWIKFH | -0.807 ± 1 |
| VAFGLMDQDIFSRRILTRSS | inactive |
| VAFNCNIEIISPAGDGETFV | -0.489 ± 0.27 |
| VALRWTIRQWFSDVYPWSWY | 0.802 ± 0.45 |
| VAQVWLSNVVMYLRRAENLT | 0.214 ± 0.26 |
| VARRGALNVRHFFPGKREV | 0.608 ± 0.47 |
| VAVDLRGIDGNIYAFQAKIE | 2.97 ± 0.068 |
| VAWLW | 0.909 ± 0.21 |
| VCACKIYKRHTLGSR | -0.573 ± 0.76 |
| VCCKLEFVSKHFRCVNGCDE | 9.264 ± 0.055 |
| VCFYPECVWQSILVLDFHVG | 3.42 ± 0.079 |
| VCHAGTWLQSGRTRYSIVRN | 3.51 ± 0.12 |
| VCKMSSLNLCKRP | -0.133 ± 1 |
| VCNFLYNGLEFVNLECFWR | inactive |
| VCQVFVNGVSSDRVAVLVVI | 5.25 ± 0.059 |
| VCRLFLYGQWLVGRRANSYS | -0.731 ± 0.39 |
| VCSFVCNLCSLCEIEFWLIA | 0.521 ± 0.26 |
| VCTNFWELMVWAQQLLFCKL | inactive |
| VCVRTTWRKDGSISCTHKSP | 0.5 ± 0.18 |
| VDAFLWHVDVHMFIEVGVRW | -0.024 ± 0.65 |
| VDARALDMIVVRDQTFRCTM | 1.24 ± 0.33 |
| VDHYTETTRL | 0.493 ± 0.24 |
| VDIFMFKAAHIRAKGNVVGL | -0.429 ± 0.45 |

| Substance | amyloid nucleation score |
| --- | --- |
| VDKLGKLEVYSWLYWV | -1.86 ± 0.55 |
| VDLYQVWSSCPVFVLWGYSC | 0.072 ± 0.79 |
| VDMTGCLTGVDVTSLRNIPL | 0.931 ± 0.38 |
| VDQCPYRFKFRVSYMMVFYM | 5.67 ± 0.086 |
| VDVPMNMIRWSQCNQ | 1.22 ± 0.59 |
| VDVRMDEWVDRTAFAWMMRV | 0.875 ± 0.43 |
| VDYKSFRNYTFMDHYCSPYN | 1.08 ± 0.18 |
| VEDDDN | -0.2 ± 0.63 |
| VEFLPCLSIYSACFSLDGST | -1.37 ± 0.44 |
| VEFTRVGVRLSHDVPVHDRW | 3.95 ± 0.066 |
| VEFYCSTERCLYDFTNG | -2.3 ± 0.75 |
| VEGVFLISMPPWPFYRLPSR | 0.961 ± 0.81 |
| VEMKGRWLIVNRRLGVSPQA | 0.097 ± 0.35 |
| VEVSECVHVIMYFRISYNKL | 3.4 ± 0.15 |
| VEWEVMGVPDSKLDRGTGTV | 1.09 ± 0.53 |
| VFAYIHFVTLGGCLLGF | 1.3 ± 0.47 |
| VFERDMLNWVSLSLDHCWCS | 1.31 ± 0.36 |
| VFFNYSNCLGLA | inactive |
| VFGKGQWVDLIRRREDVYTN | -0.759 ± 1.1 |
| VFGPPWCLGHSHWILFYVGC | -0.519 ± 1 |
| VFIVL | 1.65 ± 0.41 |
| VFLACNDCLCVWLSVEVTSE | inactive |
